Measurements taken from the supplement of paper PMC6757056.
± gives the standard deviation of the averaged measurements.

B1: library; a variant is named by its letters at N, in order (parent)
chain: GCUGUCACCGAGAAACUGUGAAGUAUAUCUUAAACCUGGGCACUUAAAAGAUAUAUGGAGUUAGUAGUGCAACCUGCUCGGUCUGAUGAGUCCNNNNNNGGACGAAACAGC

What was measured:
[1] = variants of: B1; assay: normalized RNA/DNA level without ligand (relative to sTRSVctl = 100) (log10 (% of sTRSVctl)); HEK293T; ligand: cyclic di-GMP (c-di-GMP-II aptamer); higher = less ribozyme self-cleavage, higher mRNA level; settings: reporter: mCherry (pCS4076), ligand present: no
Method in brief: (§1)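 Ribozyme switch library plasmids linked to reporters were introduced into HEK293T cells at 4 µg per 6-well well, with ligand, if any, added 1 h before. Total RNA was extracted with EDTA 72 h later, reverse-transcribed, amplified, barcoded and sequenced. RNA level was computed from RNA over DNA reads relative to a spiked-in non-cleaving sequence or the top sequences, then scaled and log-transformed. The top set was 25 sequences, values were ×100 and log10, and the cutoff was ≥100 DNA reads.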

[2] = variants of: B1; assay: normalized RNA/DNA level with ligand (relative to sTRSVctl = 100) (log10 (% of sTRSVctl)); HEK293T; ligand: cyclic di-GMP (c-di-GMP-II aptamer); ligand concentration (+) RNA-Seq: 1 mM; higher = less ribozyme self-cleavage, higher mRNA level; settings: reporter: mCherry (pCS4076), ligand present: yes
Method in brief: as §1

| Variant | normalized RNA/DNA level without ligand (log10) [1] | normalized RNA/DNA level with ligand (log10) [2] |
| --- | --- | --- |
| GUAAAC | 1.57 ± 0.017 | 1.74 ± 0.038 |
| AUACGU | 1.67 ± 0.043 | 1.79 ± 0.059 |
| AUACGG | 1.58 ± 0.093 | 1.74 ± 0.056 |
| AUACGC | 1.658 ± 0.014 | 1.81 ± 0.14 |
| GUACGU | 1.63 ± 0.039 | 1.81 ± 0.063 |
| CUAACC | 1.8 ± 0.038 | 1.84 ± 0.12 |
| CUAACA | 1.662 ± 0.0013 | 1.78 ± 0.09 |
| CUAACG | 1.77 ± 0.031 | 1.85 ± 0.15 |
| UGUUGG | 1.71 ± 0.04 | 1.86 ± 0.076 |
| UGUUGU | 1.72 ± 0.015 | 1.9 ± 0.061 |
| UGUUGC | 1.75 ± 0.026 | 1.89 ± 0.14 |
| UUAAAG | 1.65 ± 0.023 | 1.81 ± 0.11 |
| UUAAAA | 1.645 ± 0.0029 | 1.8 ± 0.066 |
| UUAAAC | 1.7 ± 0.057 | 1.8 ± 0.097 |
| CUAAAG | 1.64 ± 0.033 | 1.79 ± 0.055 |
| CUAAAC | 1.7 ± 0.018 | 1.79 ± 0.095 |
| AUACCC | 1.75 ± 0.043 | 1.89 ± 0.086 |
| AUACCA | 1.663 ± 0.0032 | 1.79 ± 0.11 |
| AUACCU | 1.7 ± 0.054 | 1.85 ± 0.046 |
| AUAACU | 1.67 ± 0.025 | 1.82 ± 0.068 |
| AUAACC | 1.75 ± 0.072 | 1.83 ± 0.1 |
| AUAACA | 1.62 ± 0.003 | 1.77 ± 0.14 |
| UUACGA | 1.77 ± 0.046 | 1.87 ± 0.11 |
| UUACGU | 1.66 ± 0.03 | 1.8 ± 0.079 |

| Variant | normalized RNA/DNA level without ligand (log10) [1] | normalized RNA/DNA level with ligand (log10) [2] |
| --- | --- | --- |
| UUACGG | 1.82 ± 0.058 | 1.9 ± 0.094 |
| UUACGC | 1.739 ± 0.011 | 1.86 ± 0.1 |
| GGUUUU | 1.7 ± 0.015 | 1.84 ± 0.077 |
| GGUUUC | 1.8 ± 0.12 | 1.86 ± 0.12 |
| GGUUUA | 1.582 ± 0.0053 | 1.79 ± 0.099 |
| GGUUGU | 1.7 ± 0.061 | 1.86 ± 0.16 |
| UGUUUG | 1.77 ± 0.014 | 1.91 ± 0.12 |
| UGUUUU | 1.71 ± 0.032 | 1.86 ± 0.11 |
| UGUUUA | 1.744 ± 0.0073 | 1.89 ± 0.072 |
| UGUUUC | 1.812 ± 0.0031 | 1.92 ± 0.08 |
| AUAAUC | 1.677 ± 0.0067 | 1.77 ± 0.08 |
| AUAAUG | 1.58 ± 0.034 | 1.75 ± 0.059 |
| AGUUUC | 1.75 ± 0.025 | 1.85 ± 0.13 |
| AGUUUU | 1.79 ± 0.033 | 1.89 ± 0.13 |
| AGUUUG | 1.65 ± 0.088 | 1.77 ± 0.096 |
| UUAAUU | 1.76 ± 0.072 | 1.88 ± 0.12 |
| UUAAUC | 1.77 ± 0.075 | 1.83 ± 0.14 |
| UUAAUA | 1.64 ± 0.044 | 1.8 ± 0.16 |
| UUACCG | 1.8 ± 0.035 | 1.88 ± 0.11 |
| UUACCU | 1.74 ± 0.022 | 1.86 ± 0.069 |
| CUAAGC | 1.75 ± 0.039 | 1.87 ± 0.077 |
| CUAAGU | 1.75 ± 0.063 | 1.84 ± 0.099 |
| CUAAGA | 1.53 ± 0.068 | 1.72 ± 0.079 |
| CUAAGG | 1.748 ± 0.0049 | 1.8 ± 0.064 |

| Variant | normalized RNA/DNA level without ligand (log10) [1] | normalized RNA/DNA level with ligand (log10) [2] |
| --- | --- | --- |
| GUAAGU | 1.65 ± 0.033 | 1.77 ± 0.061 |
| GUAAGC | 1.58 ± 0.028 | 1.76 ± 0.16 |
| AGUUGU | 1.66 ± 0.048 | 1.85 ± 0.11 |
| AGUUGC | 1.67 ± 0.029 | 1.82 ± 0.12 |
| AGUUGG | 1.63 ± 0.043 | 1.8 ± 0.11 |
| CGUUGU | 1.76 ± 0.018 | 1.86 ± 0.1 |
| CGUUGG | 1.737 ± 0.0074 | 1.85 ± 0.072 |
| CUACUG | 1.64 ± 0.025 | 1.83 ± 0.078 |
| CUACUC | 1.7 ± 0.034 | 1.83 ± 0.069 |
| CUACUA | 1.47 ± 0.14 | 1.64 ± 0.072 |
| CUACUU | 1.56 ± 0.067 | 1.73 ± 0.059 |
| GUACAC | 1.67 ± 0.03 | 1.79 ± 0.1 |
| GUACAU | 1.61 ± 0.075 | 1.79 ± 0.074 |
| GUACAG | 1.65 ± 0.067 | 1.78 ± 0.12 |
| UUACAU | 1.677 ± 0.014 | 1.82 ± 0.1 |
| UUACAG | 1.707 ± 0.0067 | 1.86 ± 0.14 |
| UUACAA | 1.639 ± 0.0043 | 1.82 ± 0.07 |
| UUACAC | 1.73 ± 0.034 | 1.84 ± 0.11 |
| AUAAAA | 1.53 ± 0.056 | 1.67 ± 0.073 |
| AUAAAC | 1.647 ± 0.0018 | 1.8 ± 0.13 |
| AUAAAU | 1.59 ± 0.005 | 1.8 ± 0.11 |
| CGUUUC | 1.59 ± 0.025 | 1.78 ± 0.11 |
| CGUUUG | 1.71 ± 0.02 | 1.86 ± 0.069 |
| AUACUC | 1.74 ± 0.022 | 1.87 ± 0.072 |

| Variant | normalized RNA/DNA level without ligand (log10) [1] | normalized RNA/DNA level with ligand (log10) [2] |
| --- | --- | --- |
| AUACUU | 1.658 ± 0.0084 | 1.83 ± 0.13 |
| AUACUA | 1.597 ± 0.0074 | 1.78 ± 0.18 |
| AUACUG | 1.56 ± 0.049 | 1.73 ± 0.086 |
| UUAGAA | 1.56 ± 0.043 | 1.73 ± 0.088 |
| CUACCA | 1.621 ± 0.016 | 1.79 ± 0.12 |
| CUACCU | 1.59 ± 0.032 | 1.77 ± 0.078 |
| CUACCG | 1.82 ± 0.095 | 1.91 ± 0.098 |
| CUACCC | 1.76 ± 0.046 | 1.88 ± 0.1 |
| UUAACC | 1.78 ± 0.073 | 1.85 ± 0.14 |
| UUAACA | 1.7 ± 0.019 | 1.8 ± 0.091 |
| UUAACU | 1.77 ± 0.02 | 1.87 ± 0.071 |
| UUAACG | 1.81 ± 0.054 | 1.88 ± 0.11 |
| CUACAG | 1.73 ± 0.023 | 1.87 ± 0.035 |
| CUACAU | 1.57 ± 0.047 | 1.72 ± 0.13 |
| CUACGU | 1.73 ± 0.017 | 1.82 ± 0.081 |
| CUACGG | 1.8 ± 0.061 | 1.89 ± 0.08 |
| CUACGC | 1.74 ± 0.043 | 1.86 ± 0.084 |
| GUAAUU | 1.689 ± 0.016 | 1.78 ± 0.054 |
| GUAAUA | 1.59 ± 0.044 | 1.73 ± 0.045 |
| GUAAUC | 1.35 ± 0.22 | 1.56 ± 0.12 |
| AUACAG | 1.59 ± 0.089 | 1.77 ± 0.04 |
| AUACAC | 1.71 ± 0.02 | 1.82 ± 0.081 |
| UUAAGC | 1.734 ± 0.0092 | 1.85 ± 0.078 |
| UUAAGU | 1.71 ± 0.02 | 1.82 ± 0.1 |

| Variant | normalized RNA/DNA level without ligand (log10) [1] | normalized RNA/DNA level with ligand (log10) [2] |
| --- | --- | --- |
| UUAAGG | 1.77 ± 0.047 | 1.9 ± 0.13 |
| GUACUC | 1.54 ± 0.099 | 1.75 ± 0.041 |
| GUACUG | 1.58 ± 0.033 | 1.78 ± 0.081 |
| GUACUU | 1.7 ± 0.036 | 1.81 ± 0.15 |
| GUACUA | 1.61 ± 0.036 | 1.8 ± 0.065 |
| GUAACC | 1.77 ± 0.084 | 1.87 ± 0.092 |
| GUAACU | 1.7 ± 0.055 | 1.82 ± 0.13 |
| GUAACA | 1.68 ± 0.035 | 1.81 ± 0.11 |
| AUAAGC | 1.6 ± 0.022 | 1.77 ± 0.082 |
| AUAAGG | 1.54 ± 0.057 | 1.71 ± 0.12 |
| AUAAGU | 1.55 ± 0.033 | 1.73 ± 0.12 |
| AUAAGA | 1.4 ± 0.11 | 1.62 ± 0.12 |
| UUACUG | 1.67 ± 0.016 | 1.84 ± 0.096 |
| UUACUC | 1.747 ± 0.0026 | 1.84 ± 0.093 |
| UUACUU | 1.68 ± 0.022 | 1.83 ± 0.11 |
| GUACCC | 1.75 ± 0.058 | 1.88 ± 0.097 |
| GUACCU | 1.73 ± 0.029 | 1.83 ± 0.13 |
| GUACCG | 1.77 ± 0.037 | 1.84 ± 0.069 |
| GUACCA | 1.68 ± 0.044 | 1.81 ± 0.13 |
| CUAAUC | 1.712 ± 0.014 | 1.81 ± 0.087 |
